Data taken from patent publication US8586570B2, “Sox-based kinase sensor” (Massachusetts Institute of Technology, priority 2006, dated 2013).

How the values were obtained:
PKCν = biological target: T1, PKCν (Homo sapiens, UniProt O94806); assay: Cross-reactivity of PKCα-S10 with PKC isozymes; type: biochemical; details: peptide 1 μM, isozyme 2 ng
T1 sequence (O94806 1-890): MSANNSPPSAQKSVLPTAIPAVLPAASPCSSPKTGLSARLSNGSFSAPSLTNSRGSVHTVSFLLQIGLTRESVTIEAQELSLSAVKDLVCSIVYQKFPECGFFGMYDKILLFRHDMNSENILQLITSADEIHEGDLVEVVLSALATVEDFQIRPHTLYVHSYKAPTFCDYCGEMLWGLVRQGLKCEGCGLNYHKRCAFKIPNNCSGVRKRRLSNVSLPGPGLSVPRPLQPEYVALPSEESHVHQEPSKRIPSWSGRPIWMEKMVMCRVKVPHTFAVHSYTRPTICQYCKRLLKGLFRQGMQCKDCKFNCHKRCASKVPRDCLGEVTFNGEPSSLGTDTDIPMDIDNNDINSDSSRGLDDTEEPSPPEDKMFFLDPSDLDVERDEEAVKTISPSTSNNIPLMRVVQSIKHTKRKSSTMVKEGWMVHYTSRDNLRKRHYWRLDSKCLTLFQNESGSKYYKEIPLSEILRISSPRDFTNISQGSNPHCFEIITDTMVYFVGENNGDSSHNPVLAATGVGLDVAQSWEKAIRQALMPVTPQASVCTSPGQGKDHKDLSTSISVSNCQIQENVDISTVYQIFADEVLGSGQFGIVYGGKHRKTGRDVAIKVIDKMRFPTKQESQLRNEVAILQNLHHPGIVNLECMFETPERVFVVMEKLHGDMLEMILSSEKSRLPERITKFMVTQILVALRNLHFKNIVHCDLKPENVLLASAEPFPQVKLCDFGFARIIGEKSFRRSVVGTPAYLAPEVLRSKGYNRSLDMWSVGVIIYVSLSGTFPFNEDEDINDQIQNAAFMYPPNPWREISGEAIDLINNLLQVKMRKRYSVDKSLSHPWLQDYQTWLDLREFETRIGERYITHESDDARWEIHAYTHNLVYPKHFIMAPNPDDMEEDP
Description: (§1) With the kinetic parameters at hand it is possible to test the cross-reactivity of PKCα-S10 with PKC isozymes. In 12 separate reactions PKCα-S10 (1 μM) is subjected to phosphorylation with PKCα, PKCβI, PKCβII, PKCγ, PKCδ, PKCε, PKCζ, PKCη, PKCθ, PKCι, PKCμ and PKCν (2 ng).

PKCμ = biological target: T2, PKCμ (Homo sapiens, UniProt Q15139); assay: Cross-reactivity of PKCα-S10 with PKC isozymes; type: biochemical; details: peptide 1 μM, isozyme 2 ng
T2 sequence (Q15139 1-912): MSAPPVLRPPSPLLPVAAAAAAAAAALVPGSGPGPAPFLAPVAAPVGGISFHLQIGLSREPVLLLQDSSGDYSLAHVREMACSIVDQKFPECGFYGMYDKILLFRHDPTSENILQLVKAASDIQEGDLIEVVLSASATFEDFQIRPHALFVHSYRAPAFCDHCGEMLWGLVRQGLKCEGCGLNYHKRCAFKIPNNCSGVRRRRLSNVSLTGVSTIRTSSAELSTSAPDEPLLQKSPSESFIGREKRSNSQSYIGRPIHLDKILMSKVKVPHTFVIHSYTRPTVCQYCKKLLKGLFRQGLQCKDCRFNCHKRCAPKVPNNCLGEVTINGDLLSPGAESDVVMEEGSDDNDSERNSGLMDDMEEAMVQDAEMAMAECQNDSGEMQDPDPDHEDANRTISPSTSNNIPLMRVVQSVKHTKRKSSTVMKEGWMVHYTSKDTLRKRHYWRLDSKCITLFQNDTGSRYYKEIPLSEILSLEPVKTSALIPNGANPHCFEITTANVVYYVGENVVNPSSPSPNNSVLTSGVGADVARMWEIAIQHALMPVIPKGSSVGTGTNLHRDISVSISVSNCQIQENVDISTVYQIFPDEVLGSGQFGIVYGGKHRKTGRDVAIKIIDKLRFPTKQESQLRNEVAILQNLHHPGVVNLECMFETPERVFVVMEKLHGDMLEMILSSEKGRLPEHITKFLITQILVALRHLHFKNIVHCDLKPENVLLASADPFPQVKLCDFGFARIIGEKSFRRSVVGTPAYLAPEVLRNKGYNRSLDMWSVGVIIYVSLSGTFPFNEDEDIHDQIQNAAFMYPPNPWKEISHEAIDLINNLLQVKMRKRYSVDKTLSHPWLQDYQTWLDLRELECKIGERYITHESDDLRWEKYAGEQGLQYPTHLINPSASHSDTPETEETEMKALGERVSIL
Description: as §1

[1] = Fluorescence increase, phosphopeptide vs unphosphorylated peptide at 485 nm; type: physicochemical; details: phosphopeptide / unphosphorylated peptide intensity at 485 nm, generally 10 mM Mg2+
Description: Fluorescence experiments were performed on a Fluoromax 3 from Jobin Yvon. 5 nm emission and excitation slit widths were used. For all experiments, an excitation wavelength of 360 nm was used. Enzyme assays were performed by monitoring emission at 485 nm.
After peptide characterization, emission spectra were obtained for unphosphorylated and phosphorylated peptides under appropriate conditions. The spectra were generally acquired in the presence of 10 mM Mg^2+(although lower Mg^2+concentrations can and have been used as well) and either 0, 0.1 or 1 mM ATP in a preselected buffer (usually 20 mM HEPES, pH 7.4). Relying on the emission spectra the fold fluorescence differences were measured by dividing the fluorescence intensity of the phosphopeptide by the fluorescence intensity of its unphosphorylated counterpart at 485 nm. FIG. 2 depicts the fluorescence spectra of the phosphorylated and unphosphorylated peptides in the appropriate assay mixture: (A) emissions scans of PKCβI-1 (10 μM), 10 mM Mg(II), 3×; (B) emissions scans of PKCβI-1 (10 μM), 10 mM Mg(II), 0 mM ATP, 3×.; (C) fluorescence difference for PKCβI-1 (10 μM), 10 mM Mg(II), 3×; (D) fluorescence increase for PKCβI-1 (10 μM) at 10 mM Mg (II).

Substance: Ac-RRR-C(Sox)-ASFRRKA-CONH2 [PKCα-S10(P10), Sox chemosensor with extended recognition domain for PKCα]
- activity of isozyme on peptide (PKCν): no activity
- activity of isozyme on peptide (PKCμ): no activity
- Fluorescence Increase [1]: 3.9 x
